Experimental findings from paper PMC3541284 (Autophagy, 2012) are described below.

In the assay the target is 6xHis-GABARAP (UniProt O95166 1-117). Description: pull-down.
6xHis-GABARAP, sequence (O95166 whole entry): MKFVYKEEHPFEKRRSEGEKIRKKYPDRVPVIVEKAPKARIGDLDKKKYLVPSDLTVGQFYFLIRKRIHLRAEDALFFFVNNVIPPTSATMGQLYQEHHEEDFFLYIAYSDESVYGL

B1: GST-MAPK15_300–373_WT (domain or fragment, UniProt Q8TD08 300-373, looked up)
chain: QHPYVQRFHCPSDEWAREADVRPRAHEGVQLSVPEYRSRVYQMILECGGSSGTSREKGPEGVSPSQAHLHKPRA
B1: the binding result is reported as “binds”.
